Source: patent publication US20200131230A1 (published 2020)
Positions of bridges follow the written chain, without caps; N, C: chain ends. Non-standard residues stand in square brackets, D forms with d. 2Nal = N[C@@H](Cc1ccc2ccccc2c1)C(=O)O; Pen = CC(C)(S)[C@H](N)C(=O)O; Phg = N[C@H](C(=O)O)c1ccccc1; Nle = CCCC[C@H](N)C(=O)O; HCt = not defined here

What follows are binders tested against T1, Thrombospondin human platelet (Calbiochem, 605225) (human, UniProt P07996 19-1170) (assay: cell-based or functional assay).
T1 sequence (P07996 19-1170 limits assumed): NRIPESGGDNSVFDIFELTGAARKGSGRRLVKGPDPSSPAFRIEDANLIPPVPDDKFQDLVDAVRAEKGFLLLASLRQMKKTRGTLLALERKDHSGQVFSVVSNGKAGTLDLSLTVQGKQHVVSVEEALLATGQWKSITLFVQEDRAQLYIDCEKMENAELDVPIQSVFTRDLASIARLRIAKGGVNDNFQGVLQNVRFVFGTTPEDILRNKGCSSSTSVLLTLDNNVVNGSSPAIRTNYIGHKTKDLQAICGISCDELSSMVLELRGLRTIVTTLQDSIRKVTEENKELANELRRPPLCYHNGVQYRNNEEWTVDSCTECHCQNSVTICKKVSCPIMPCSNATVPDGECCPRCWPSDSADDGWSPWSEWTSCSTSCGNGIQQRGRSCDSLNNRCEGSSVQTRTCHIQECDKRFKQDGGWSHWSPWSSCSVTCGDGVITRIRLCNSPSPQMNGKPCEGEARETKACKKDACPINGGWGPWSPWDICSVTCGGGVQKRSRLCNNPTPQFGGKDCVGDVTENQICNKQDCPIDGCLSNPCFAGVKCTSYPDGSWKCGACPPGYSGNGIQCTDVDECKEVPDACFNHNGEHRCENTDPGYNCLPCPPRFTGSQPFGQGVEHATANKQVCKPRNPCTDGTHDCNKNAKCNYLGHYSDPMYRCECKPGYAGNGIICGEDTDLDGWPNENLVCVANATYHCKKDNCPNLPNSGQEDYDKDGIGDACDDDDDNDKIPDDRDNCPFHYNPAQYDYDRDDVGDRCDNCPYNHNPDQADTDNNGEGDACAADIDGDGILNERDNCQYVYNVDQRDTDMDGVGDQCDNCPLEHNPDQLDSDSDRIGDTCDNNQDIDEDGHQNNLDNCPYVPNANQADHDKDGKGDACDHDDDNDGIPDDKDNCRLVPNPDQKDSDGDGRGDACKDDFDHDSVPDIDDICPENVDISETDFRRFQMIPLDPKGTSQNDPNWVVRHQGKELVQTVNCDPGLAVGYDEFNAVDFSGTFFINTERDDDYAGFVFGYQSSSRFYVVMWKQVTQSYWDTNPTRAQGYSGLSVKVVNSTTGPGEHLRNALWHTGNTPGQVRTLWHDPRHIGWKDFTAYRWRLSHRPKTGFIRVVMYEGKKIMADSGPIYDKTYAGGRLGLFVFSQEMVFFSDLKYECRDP

Row | Cell adhesion IC50 [µM] | Binder
1 | 0.0195 | {CH2CO}-[2Nal]RSGHNW[Nle]VWVC-NH2 (thioether N-12; SMILES CCCC[C@@H]1NC(=O)[C@H](Cc2c[nH]c3ccccc23)NC(=O)[C@H](CC(N)=O)NC(=O)[C@H](Cc2c[nH]cn2)NC(=O)CNC(=O)[C@H](CO)NC(=O)[C@H](CCCNC(=N)N)NC(=O)[C@H](Cc2ccc3ccccc3c2)NC(=O)CSC[C@@H](C(N)=O)NC(=O)[C@H](C(C)C)NC(=O)[C@H](Cc2c[nH]c3ccccc23)NC(=O)[C@H](C(C)C)NC1=O) [Compound 100]
2 | 0.015 | {CH2CO}-[2Nal]ISGRDW[Nle]KWV[Pen]-NH2 (thioether N-12; SMILES CCCC[C@@H]1NC(=O)[C@H](Cc2c[nH]c3ccccc23)NC(=O)[C@H](CC(=O)O)NC(=O)[C@H](CCCNC(=N)N)NC(=O)CNC(=O)[C@H](CO)NC(=O)[C@H]([C@@H](C)CC)NC(=O)[C@H](Cc2ccc3ccccc3c2)NC(=O)CSC(C)(C)[C@@H](C(N)=O)NC(=O)[C@H](C(C)C)NC(=O)[C@H](Cc2c[nH]c3ccccc23)NC(=O)[C@H](CCCCN)NC1=O) [Compound 79]
3 | 0.0039 | {CH2CO}-[2Nal]RSGKNWVVWVC-NH2 (thioether N-12; SMILES CC(C)[C@@H]1NC(=O)[C@H](Cc2c[nH]c3ccccc23)NC(=O)[C@H](C(C)C)NC(=O)[C@H](C(C)C)NC(=O)[C@H](Cc2c[nH]c3ccccc23)NC(=O)[C@H](CC(N)=O)NC(=O)[C@H](CCCCN)NC(=O)CNC(=O)[C@H](CO)NC(=O)[C@H](CCCNC(=N)N)NC(=O)[C@H](Cc2ccc3ccccc3c2)NC(=O)CSC[C@@H](C(N)=O)NC1=O) [Compound 98]
4 | 0.0251 | {CH2CO}-F[2Nal]ISGKDW[Nle]RWVC-NH2 (thioether N-13; SMILES CCCC[C@@H]1NC(=O)[C@H](Cc2c[nH]c3ccccc23)NC(=O)[C@H](CC(=O)O)NC(=O)[C@H](CCCCN)NC(=O)CNC(=O)[C@H](CO)NC(=O)[C@H]([C@@H](C)CC)NC(=O)[C@H](Cc2ccc3ccccc3c2)NC(=O)[C@H](Cc2ccccc2)NC(=O)CSC[C@@H](C(N)=O)NC(=O)[C@H](C(C)C)NC(=O)[C@H](Cc2c[nH]c3ccccc23)NC(=O)[C@H](CCCNC(=N)N)NC1=O) [Compound 94]
5 | 0.0124 | {CH2CO}-[2Nal]RSGKNW[Nle][Phg]WVC-NH2 (thioether N-12; SMILES CCCC[C@@H]1NC(=O)[C@H](Cc2c[nH]c3ccccc23)NC(=O)[C@H](CC(N)=O)NC(=O)[C@H](CCCCN)NC(=O)CNC(=O)[C@H](CO)NC(=O)[C@H](CCCNC(=N)N)NC(=O)[C@H](Cc2ccc3ccccc3c2)NC(=O)CSC[C@@H](C(N)=O)NC(=O)[C@H](C(C)C)NC(=O)[C@H](Cc2c[nH]c3ccccc23)NC(=O)[C@H](c2ccccc2)NC1=O) [Compound 103]
6 | 0.0155 | {CH2CO}-T[2Nal]ISGRDW[Nle]KWVC-NH2 (thioether N-13; SMILES CCCC[C@@H]1NC(=O)[C@H](Cc2c[nH]c3ccccc23)NC(=O)[C@H](CC(=O)O)NC(=O)[C@H](CCCNC(=N)N)NC(=O)CNC(=O)[C@H](CO)NC(=O)[C@H]([C@@H](C)CC)NC(=O)[C@H](Cc2ccc3ccccc3c2)NC(=O)[C@H]([C@@H](C)O)NC(=O)CSC[C@@H](C(N)=O)NC(=O)[C@H](C(C)C)NC(=O)[C@H](Cc2c[nH]c3ccccc23)NC(=O)[C@H](CCCCN)NC1=O) [Compound 85]
7 | 0.0238 | {CH2CO}-W[2Nal]ISGRDW[Nle]KWVC-NH2 (thioether N-13; SMILES CCCC[C@@H]1NC(=O)[C@H](Cc2c[nH]c3ccccc23)NC(=O)[C@H](CC(=O)O)NC(=O)[C@H](CCCNC(=N)N)NC(=O)CNC(=O)[C@H](CO)NC(=O)[C@H]([C@@H](C)CC)NC(=O)[C@H](Cc2ccc3ccccc3c2)NC(=O)[C@H](Cc2c[nH]c3ccccc23)NC(=O)CSC[C@@H](C(N)=O)NC(=O)[C@H](C(C)C)NC(=O)[C@H](Cc2c[nH]c3ccccc23)NC(=O)[C@H](CCCCN)NC1=O) [Compound 89]
8 | 0.0299 | {CH2CO}-L[2Nal]ISGRDW[Nle]KWVC-NH2 (thioether N-13; SMILES CCCC[C@@H]1NC(=O)[C@H](Cc2c[nH]c3ccccc23)NC(=O)[C@H](CC(=O)O)NC(=O)[C@H](CCCNC(=N)N)NC(=O)CNC(=O)[C@H](CO)NC(=O)[C@H]([C@@H](C)CC)NC(=O)[C@H](Cc2ccc3ccccc3c2)NC(=O)[C@H](CC(C)C)NC(=O)CSC[C@@H](C(N)=O)NC(=O)[C@H](C(C)C)NC(=O)[C@H](Cc2c[nH]c3ccccc23)NC(=O)[C@H](CCCCN)NC1=O) [Compound 82]
9 | 0.0158 | {CH2CO}-F[2Nal]ISGRDW[Nle]KWVC-NH2 (thioether N-13; SMILES CCCC[C@@H]1NC(=O)[C@H](Cc2c[nH]c3ccccc23)NC(=O)[C@H](CC(=O)O)NC(=O)[C@H](CCCNC(=N)N)NC(=O)CNC(=O)[C@H](CO)NC(=O)[C@H]([C@@H](C)CC)NC(=O)[C@H](Cc2ccc3ccccc3c2)NC(=O)[C@H](Cc2ccccc2)NC(=O)CSC[C@@H](C(N)=O)NC(=O)[C@H](C(C)C)NC(=O)[C@H](Cc2c[nH]c3ccccc23)NC(=O)[C@H](CCCCN)NC1=O) [Compound 87]

Biological target: T1, Thrombospondin human platelet …
Test: cell-based or functional assay
Remark: another data set of the same source

Row | Cell adhesion IC50 [µM] | Binder
10 | 0.0279 | {CH2CO}-[2Nal]ISG[3Hyp]NW[Nle]HWVC-NH2 (thioether N-12) [Compound 69]
11 | 0.0207 | {CH2CO}-[2Nal]ISG[HCt]DW[Nle]KWVC-NH2 (thioether N-12; reading uncertain) [Compound 74]
